These results are taken from article PMC8322077, “Antibody toolkit reveals N-terminally ubiquitinated substrates of UBE2W” (Nature Communications, 2021).

In the assay the target is T1, biotinylated ubiquitin (UniProt P0CG48 1-76, biotin).
T1 construct: ubiquitin (monoubiquitin); also called biotin-Ub; monoubiquitin; source: bought: Boston Biochem (Cat# UB-570)
The assay is described as follows: BLI; Octet Red384; biotinylated ubiquitin immobilised on streptavidin biosensors; analyte fourfold dilutions starting at 5 μM; 25 °C; 150 mM NaCl, 20 mM Tris 7.5, 1 mg/mL BSA, 0.01% Tween-20, 1 mM TCEP; association 180 s, dissociation 300 s. The settings on record: both partners purified.

B1: UCHL5^WT (enzyme, UniProt Q9Y5K5 1-329, looked up)
chain: MTGNAGEWCLMESDPGVFTELIKGFGCRGAQVEEIWSLEPENFEKLKPVHGLIFLFKWQPGEEPAGSVVQDSRLDTIFFAKQVINNACATQAIVSVLLNCTHQDVHLGETLSEFKEFSQSFDAAMKGLALSNSDVIRQVHNSFARQQMFEFDTKTSAKEEDAFHFVSYVPVNGRLYELDGLREGPIDLGACNQDDWISAVRPVIEKRIQKYSEGEIRFNLMAIVSDRKMIYEQKIAELQRQLAEEEPMDTDQGNSMLSAIQSEVAKNQMLIEEEVQKLKRYKIENIRRKHNYLPFIMELLKTLAEHQQLIPLVEKAKEKQNAKKAQETK
notes: ubiquitin C-terminal hydrolase L5 (UCHL5), full-length wild type; also called UCH37; source: E. coli BL21-Gold(DE3), purified (Ni-NTA, SEC)
In the case of B1, the binding result was “binds”.
